The sequences below were run on Saccharomyces cerevisiae (assay: transcriptional activation domain activity (GFP:mCherry ratio, weighted mean of sorted bins, harmonized to initial dataset scale) (arbitrary fluorescence ratio units); higher = stronger transcriptional activation). Conditions: beta-estradiol 1 µM; induction time 4 h.
How it was run: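 The listed activation activity is a read-weighted mean of bin median fluorescence, averaged across barcodes and linearly mapped onto the initial dataset scale. Barcoded tiles, fused to an estradiol-inducible synthetic transcription factor, were integrated at URA3 in yeast diploids bearing a GFP reporter. Cells were held 4 hours at 30 °C in SC with 1 uM beta-estradiol, sorted into 8 GFP:mCherry bins, and sequenced, and tiles with fewer than 50 reads were excluded.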

Sequence | transcriptional activation domain activity
ARGEKNPPMTQKDLATKVNEKPSVINDYESGRAVPDQKVLAKLERALGVKLRG | 50400
HPNDAGDENDGEGESAAPAKEKEPAGTAATPASYQLQSIACHKGTSIHAGHYV | 33100
MKGIRLYFRYVLLHVLLLLPSLPFFFPYLCRRFTCSFMNILIGFLFCFFLYIC | 55300
TNPAAAVAAAVAAKKTDTEEETTPKEDKAEEAKPEEEKKEEKKEEKAAAKSRS | 33900
SKPSARKASSRSVASKEQAAVAAKKVASVEEQKKKRGRPRKLPLSDATNEVAS | 42100
DANASSSSTSSTQANNYIDFHWNNIKPELRDLICQSYKDFLINELGPDQIDLP | 51100
MLLSMLYNSVGYQYLEDHCPQGGEYSDLLRNLINECEAILPSYEIIERYKNHF | 39500
MTLITIIDLESFIFEDCIDLILFSQFLDSFQHSAVLTAYINWYTNADWWRSIV | 66900
MHCIVVSCSLFLWFVFCKYLIYFKNAFTDISVFLGFLFGWFLSLLFHLSIVFG | 48500
SNRLFVGLPLCRDPEYLKFSVNHTMRVFMSGRMISVLTPVLRPILAPLLCSRK | 49600
MFCLRSWIPILFFLLRTNASPIYLILFISATYFLNRPCVYCSLLLFILVVALF | 50800
ASFLVLRDIRLLDCFSVLASCGYVSLFPLIYTCDEWLIKVVYTLLWYIIYYFS | 84300
GKVPRRTERRKLWDDVKALRKELIDILLFSPLSLADIHFRYRKREGGVVNYYL | 21800
RAVAVLRRGDFAGAGGGGGSGAGGGKRRKEKEKEEQEERRRRPAVASRAVKDL | 57500
LQTYMRSLEWTILTCSVIEIIEKLKMAPENMHELSPLCVKLIIKFCLTEILSY | 43400
GNGGAGAGAGGANANANANANAGNGAAAAGGNNAATAATGGGKAAKAAAAAAA | 22600
GGDSVVDILFSQTSATEFVTVGGTGNVYHWDMEYSFSRNDDDNEDEVRVAAPE | 38300
MMLLSVRLCIVFFSFMAACFGIPYTPSILFASLFASALGLHILRIFFLVIVHF | 51300
QLLLSRLVTWLIRLVCQDEGPLVLKKMCSTLATYFLRPTASWPQCIRHLICSF | 38800
KASLGTGDAGKATTKSASAAVKSKAAAKSAKASDSKGGGEDEEEDGGAPKKKK | 18900
MHYLGLFRALDYNASSLIGVVNIDYTTVIYLIIEELIILLLTLAKRNVATQYA | 61800

Sequence | transcriptional activation domain activity
LLRFSLLLMFPWLVCLVSCFPCFPLLLPTSCATRFRFLHPFLTVSLLSLLFLC | 56800
YSMPSEICIVGFSGVNTAFIVSLLVDLGFQASPIYSMYMFFLTWRFCARLVHY | 66500
ARQSDDDGQVKVYQRGSASLVAMLLTNLAPNETLIALINLIADRPWLKALYAL | 80500
LVRQEDLINIAFHFVAKIPCTWPLPLRKAIADLHHYGGLHVGCTVSALFWYIL | 45300
MITTLYHHVRYILIRQPRRPVSLLDQPAVLNYLYVLLYHTIVTFNILTPAVYW | 49600
SMHCGVVPCCFFVCLCLISFVYLEISIIFLGHSFFLSLSFFYIMNLFYTWWVS | 25200
HSPYLNSEADFSQILSSAPPVHHDPNETHQENQDIIDRFANSSQEHNEYILQY | 66200
IWMILEIARSTLVFFRIYNFGHFVYNLVTKFDLMAIIPLLLVTLLPQIWFFCF | 33800
TAATVPSATRAVVSATCRATALRVRSATTAAVTTTSPATARLPARPAPATTAS | 34000
MCMYFFTFFFFTFLFFFTFFVFFFFVSMEYLPTLLALIYIYYMSLPTSAQCSN | 35900
PPPPPPPPPPAGRGGGAPPPHAISGGAPPPPPTPPPPPPPPPPPGVVPVPPPP | 41600
SRSRSRRRKSSRRRRRDRSEDAESDDHRARRRHKSRKHSSRAGDDEDGKGRSR | 26100
MHRATNYYFSFSALLYLVFIFLRCSLALGLFFCFMFLSFEFFCFLMVLCLFCI | 33200
VAKCFEKVKALIGTFDLDVGRVLDVTLDVFASLLVKHHKFFIKLLRCSYWWPV | 83300
QYRYLTYSRWLVLLLYVFSWAFTVISMVLVTTNNANFVSCLLSILVCDVFYSG | 39300
MSHPYRGERVHLQVGQNIWIVALIVLVQIFSTVRSNPGCSLLVSMTAKFWCPR | 63800
MKRVYKLNTCLFFYNSYNPFHIYFYSFIHSNMPAMYHLFSILLLWLNCLSLVQ | 44500
FWPWTFWPWIFWTFGLFGLGLFGLGLFGFFGLFGPLDFLDFLDFLALDFLDFL | 37000
FRLAFMLICVDVFLALFHILDYVLYIPSRVCTFSAWGTLTCELMTIFLNVTIA | 52500
EILHLMVDRDLFLLLAIDGIMCLATSFGFLLQKAIVHDCLTWNGSGWIIQSLW | 68500
DPNSPLDGDVDELRSREIAAKAVTGTLILLLKWLKLSHVLKFEYVTQLLLDLN | 57100

Sequence | transcriptional activation domain activity
ILGRLCRVRVLGFNDVLVRVDIILCLHLDTPAEAVFRVQRLVSLMGMLALQVF | 41300
LSGLFSGYLCLFVSGFHIVMTEGILVIGYLVSPVFLFFFPLPFIFVMFPLHFV | 76700
VPPRSLCFLPSFSILTYILLIFSHLAVCPRPGPPSSSPVSIVLLLFFLRPYLL | 67500
SGFRDNRKDNRGRGRDRGNRRDNRGNDRNREREDKEKAESKDVKSEDAPVKTE | 28100
KKEEEGEESEPEKLPKSTKRGRKKVEEEVKAEGEEEEEEAPVAKKQKPAANGS | < 6570
VPGEVTEAEANGEAPKAEDGAEDGEAAKPKKKKKSKAARKAKKAAAASTEDGA | 21600
MRFLLLSFPCNHHPSLSLYISSISLFLLRPFIFLSLLFFCIVSYYLGVCVVWG | 53500
VILGYCSLFVWFAVCGFCFLCFCVFVFLCFLFFVFFWHSSLGYLAGLAIIITF | 18300
PFVVTLLNLWKIWSLKLLKEKARLVVDGGAFVMGCVDETVTLRGHDDHKWTKD | 56800
FDETIIQLRKTVLSCSTCCSIALKWFAEHEYALVGLLLRCLHMKVRSQIRAFL | 44000
ANEYNVVCSILVFWSDTVPLWGFFLIFWFFFLGFQLLGVESFGEAEFWLALLK | 62200
LYNTLFLQLSAIAREFNFPSAAGLCCYMNFSDNGSIFAPRITDDAWIILWRRY | 71800
TVGVLILWCWLRLIQKALEKLHVKQIKTGHYGSPPLKNMLLPWLKQTFIFVLA | 69100
SIKVTRYLLNLAHCTNDQWFYYIVFFFAELVVYTIMIVAIGSILFQWRFFCLV | 52100
YKEWDELVKYFFRQVTKRVQERPELVVEMLFSKIPATIFFLDHGYDRELPSRA | 46400
SSSGTPQAKSSSPSSTAASTKAPTSSATKPTSTGSCRKKRSNSTQRRSRTSRM | 45400
MRLCFAKYHFPPPSTFFPPLLFSLLCPVAFYANYCPFFFFFLFLFPYSFFVQE | 63600
LRKSQDRLWAERPWYFYPMYFNEHGNGIFPEVVHLNDAVVIGVLHYYLIQVLL | 46400
MWLFLLMFYIVLWLRKAGAFISSSFSSFSVLSFSYLFLCGYLPFSFLFLTFSL | 54200

From the supplement of paper PMC12636428
